Several values for one entry are separate records, joined by “and”; a condition that tells them apart may be missing. Equal entries are not always repeated.
Assays:
[1] = biological target: Poly-(Glu, Tyr) 4:1 (MW: 39100, Messrs. Sigma; CAS number 97105-00-5); assay: RIfS solution competition: PGT 10 ug/50 ul, EGF-RK 2 Units/50 ul, no ATP; free antibody read on phosphotyrosine-diamino-PEG 2000 sensor
[2] = biological target: Poly-(Glu, Tyr) 4:1 (MW: 39100, Messrs. Sigma; CAS number 97105-00-5); assay: RIfS solution competition: PGT 10 ug/50 ul, EGF-RK 1 Unit/50 ul, no ATP, no inhibitor (control of the genistein series); phosphotyrosine-diamino-PEG 2000 sensor
[3] = biological target: oligopeptide Ac-Ile-Tyr-Gly-Glu-Phe-NH2 "M-2165" (Messrs. Bachem, MW 668.8); assay: RIfS solution competition: M-2165 10 ug/50 ul, p60c-src-kinase 2 Units/50 ul, no ATP; free antibody read on phosphotyrosine-diamino-PEG 2000 sensor
[4] = biological target: phosphorylated Poly-(Glu, Tyr) 4:1 (after reaction with EGF-RK and ATP); assay: RIfS solution competition: PGT 10 ug/50 ul, EGF-RK 1 Unit/50 ul, ATP, no inhibitor (Tyrphostin 47 series); phosphotyrosine-diamino-PEG 2000 sensor
[5] = biological target: Raytide EL (protein-tyrosine-kinase substrate, MW 2476 Dalton, Messrs. Calbiochem); assay: RIfS solution competition: Raytide EL 2 ug/50 ul, EGF-RK 0.5 Units/50 ul, no ATP; free antibody read on phosphotyrosine-diamino-PEG 2000 sensor
[6] = biological target: Poly-(Glu, Tyr) 4:1 (MW: 39100, Messrs. Sigma; CAS number 97105-00-5); assay: RIfS solution competition; mean of the two mixtures without ATP of Table 10
[7] = biological target: phosphorylated Raytide EL (after reaction with EGF-RK and ATP); assay: RIfS solution competition: Raytide EL 2 ug/50 ul, EGF-RK 0.5 Units/50 ul, ATP; free antibody read on phosphotyrosine-diamino-PEG 2000 sensor; lower value = antibody taken up by phosphorylated substrate
[8] = biological target: phosphorylated Poly-(Glu, Tyr) 4:1 (after reaction with EGF-RK and ATP); assay: RIfS solution competition: PGT 10 ug/50 ul, EGF-RK 1 Unit/50 ul, ATP, no inhibitor (staurosporin series); phosphotyrosine-diamino-PEG 2000 sensor
[9] = biological target: phosphorylated Poly-(Glu, Tyr) 4:1 (after reaction with EGF-RK and ATP); assay: RIfS solution competition: PGT 10 ug/50 ul, EGF-RK 1 Unit/50 ul, ATP, no inhibitor (erbstatin analogue series); phosphotyrosine-diamino-PEG 2000 sensor
[10] = biological target: Poly-(Glu, Tyr) 4:1 (MW: 39100, Messrs. Sigma; CAS number 97105-00-5); assay: RIfS solution competition: PGT 10 ug/50 ul, EGF-RK 1 Unit/50 ul, no ATP, no inhibitor (control of the Tyrphostin 47 series); phosphotyrosine-diamino-PEG 2000 sensor
[11] = biological target: oligopeptide Ac-Ile-Tyr-Gly-Glu-Phe-NH2 "M-2165" (Messrs. Bachem, MW 668.8); assay: RIfS solution competition: M-2165 10 ug/50 ul, p60c-src-kinase 4 Units/50 ul, no ATP; free antibody read on phosphotyrosine-aminodextrane (AMD) sensor
[12] = biological target: phosphorylated Poly-(Glu, Tyr) 4:1 (after reaction with EGF-RK and ATP); assay: RIfS solution competition: antibody incubated with mixture (PGT 10 ug/50 ul, EGF-RK 0.1 Unit/50 ul, EGF 0.5 ug/50 ul, ATP), free antibody read on phosphotyrosine-diamino-PEG 2000 sensor; lower value = antibody taken up by phosphorylated substrate
[13] = biological target: phosphorylated Poly-(Glu, Tyr) 4:1 (after reaction with EGF-RK and ATP); assay: RIfS solution competition: PGT 10 ug/50 ul, EGF-RK 2 Units/50 ul, ATP; free antibody read on phosphotyrosine-diamino-PEG 2000 sensor; lower value = antibody taken up by phosphorylated substrate
[14] = biological target: Poly-(Glu, Tyr) 4:1 (MW: 39100, Messrs. Sigma; CAS number 97105-00-5); assay: RIfS solution competition: PGT 10 ug/50 ul, EGF-RK 1 Unit/50 ul, no ATP; free antibody read on phosphotyrosine sensor
[15] = biological target: phosphorylated Poly-(Glu, Tyr) 4:1 (after reaction with EGF-RK and ATP); assay: RIfS solution competition: PGT 10 ug/50 ul, EGF-RK 1 Unit/50 ul, ATP, no inhibitor (genistein series); phosphotyrosine-diamino-PEG 2000 sensor
[16] = biological target: phosphorylated Poly-(Glu, Tyr) 4:1 (after reaction with EGF-RK and ATP); assay: RIfS solution competition; mean of the six complete mixtures of Table 10
[17] = biological target: Poly-(Glu, Tyr) 4:1 (MW: 39100, Messrs. Sigma; CAS number 97105-00-5); assay: RIfS solution competition: antibody incubated with mixture (PGT 10 ug/50 ul, EGF-RK 0.1 Unit/50 ul, EGF 0.5 ug/50 ul, no ATP), free antibody read on phosphotyrosine-diamino-PEG 2000 sensor; high value = antibody not taken up by substrate
[18] = biological target: Poly-(Glu, Tyr) 4:1 (MW: 39100, Messrs. Sigma; CAS number 97105-00-5); assay: RIfS solution competition: PGT 10 ug/50 ul, EGF-RK 1 Unit/50 ul, no ATP, no inhibitor (control of the staurosporin series); phosphotyrosine-diamino-PEG 2000 sensor

monoclonal murine antibody IgG1 from Ascites: Anti-PhosphoTyrosine (Clone number: PT-66, Messrs. Sigma)
Optical layer thickness in nm [1]: 2.65 nm | Optical layer thickness in nm [2]: 2.4 nm | Optical layer thickness in nm [3]: 3.2 nm | Optical layer thickness in nm [4]: 0.613 nm | Optical layer thickness in nm [5]: 3.11 nm | optical layer thickness in nm (mean value) [6]: 2.16 nm | Optical layer thickness in nm [7]: 1.83 nm | Optical layer thickness in nm [8]: 0.233 nm | Optical layer thickness in nm [9]: 0.852 nm | Optical layer thickness in nm [10]: 2.3 nm | Optical layer thickness in nm [11]: 3.81 nm | Optical layer thickness in nm [12]: 2.04 nm | Optical layer thickness in nm [13]: 0.225 nm | Optical layer thickness in nm [14]: 2.06 nm and 2.27 nm | Optical layer thickness in nm [15]: 0.446 nm | optical layer thickness in nm (mean value) [16]: 0.19 nm | Optical layer thickness in nm [17]: 2.59 nm | Optical layer thickness in nm [18]: 2.99 nm

Reference: patent publication US20050026219A1, “Process for label-free measurement of modified substrate” (Boehringer Ingelheim Pharma GmbH & Co. KG, priority 2001, published 2005)
